{"source": "the DeepSol protein solubility set"}
{"assay": "soluble on expression in E. coli; label from the status in PepcDB or PDB records"}
{"sequence": "MGSDKIHHHHHHGGFTGAIADFPTAIHRAVKGQMQTTTDYLNGEQTEYDESVFTGEYHYYYEKLSDDDKLIYRQIYAMMQKRMDGISLNTTDTDNVSRIQQFVLLDNPQFFYIEKSQYTVRNSIIFSPVYNMSESDIDNAISTISGYVSACMAGIDEGASDYDKAVHFYEYVIEHAEYEENSPHNQDMYSAVLGRTVCQGYAMMFKYLCDRAGISSLIVTGTTSDANHAWNMVYLDGAWCAVDCTYGDGDYLGKGISYSWFGVPLDVVKLTRTLDNEDMLPQEASVEDDYYYRNGLYFTSYDLKVLQGMTTSSNYITFKFSDRETYDTACHSLFDKGDYKYLIPTARGGTITYMQEPNSLAVFIHIELGS", "soluble on expression in E. coli": "not soluble"}
{"sequence": "MGSDKIHHHHHHMMSEEKILSVDFTQEDAYTEILPRSPLVSSYHAQWQGLRLDVHQQPGHETPEHSPQQHVLTVSLEQQIVRSERILDGRLQYENIAKGDVAIIPAQTRHISRWQSEAKFLVLSMEPAFFTRMVIEAGDLQKIEIKPRFAAPDPLIQQIGLALQTELESEHKGSSIYIESLTTTLCIHLLKHYCVTGGTILDDHHHKGLSHWKLRQAISYIHENLDQDLTLVDISTAVGMSMYYFSRQFKQSTGFAPHQYVMNCRIERAKKLLGSTNKTIEQICTQVGFQSQSHFTNVFRKLMGITPRVYREQVKT", "soluble on expression in E. coli": "not soluble"}
{"sequence": "MAHHHHHHMEPHMTSLVLRRDLSLEVPKLLIGAVQPYQTLAGPALTTSFLHQPDLLPFQRTAFSHAAVAPLYFHTLLHTLAEFAETPRAVQYSAVKLRHAPKADFWDSVGTLNCFYYSAHAPYGAPVEASVLDQHPAMGAVELVRPGHRMESDVKLTLFNDSHQPIASMLMTGPNGAPRETDDDAVESSQGTSSTSPHARTAFPYVAPPTKETTSASDCLSAVMIGGTRVYGGLYGDLMPMESGGGFGQRACYRVEDAAAYSPSLDARSRVSGTEAAAGERTASSSASTVMPPWVLYDCVQRFFLRLHRSGIFGGDAAVAPTEGWRVSAHHVVQTEDAVFGVPVEVVCAVPRVYPSYRLPPWRHRLGLPAIPNGAPPCVCLRCETRQGGRLVSTGVYFFNRW", "soluble on expression in E. coli": "soluble"}
{"sequence": "MGSDKIHHHHHHMVDADQLRQWGRKVIDTERNALDNLYQYVDSSEFAKACQLILACTGKVIVMGMGKSGHIGNKISATLASTGTPAFFVHPGEASHGDLGVLSENDIVLAISNSGEASEILTLMPVIKRMGLPVIAVTGKPESNMAKHSVVHLCIEVPEEACPLGLAPTSSTTATLVMGDALAVALLQARGFTKDDFALSHPGGSLGRKLLLKVSDVMHKGDDLPLVAEDICITEALYEISKKGLGMTGVVNSQGMLVGIFTDGDLRRVIDAEINLRKTSISEVMTHGCVTVSEGILAAQALKVMDEKEINGLIVTDEQQKPIGALNMLDMVKAGVI", "soluble on expression in E. coli": "not soluble"}
{"sequence": "SKDIDMGKEYIIPSPGYRSDRDRSAVPGQHRDPEEPRFRRTRSLECQDALETAARVEGLSLDISVHSHLQILDEEHSKGKYHHGLSVLKPFRTTTKHQHPVDNAGLFSYMTFSWLSPLARVVHKKGELLMEDVWPLSKYESSDVNSRRLERLWQEELNEVGPDAASLRRVVWIFCRTRLILSIVCLMITQLAGFSGPNFQDGCILRSE", "soluble on expression in E. coli": "soluble"}
{"sequence": "MRMRLMLLGGGNALGQALIRLGAEEDIGFLAPRPPEQGWDAASLTTLLDETRPDAVINLAFYHDWFQAEQVEAERLGAQERAVERLAELCQHYEILLVQPSSYRVFDGARATAYSEKDETLPLGLRGQALWRMEQSVRAACPRHVLIRFGWLLDESPNGLLGRFLSRAEQPQPLFLADDRRGNPTPVDDAARVVLSVLKQLDCQAPLWGTYHYGGLEATTTLALGQVILNEARTYRSNLIQEPSAEAHAARPDALDEPQHAVMVCKKILHTFGIKPRAWRAGLPALLDRYYRHV", "soluble on expression in E. coli": "not soluble"}
{"sequence": "MCITFIKTAKSSLDKYKLILLNNRDEQLLRPTKEMHWHDGILSGVDKQENARGTWLGLNENGRIGMMLSITQTQESKNLHAPSRGGIVNEFLNANDTSKMIESLKKCASKYNGFQLVAVEKNSTGLYEVRTLANQQVDEIEVCQLKDEYHVVSNSPPTKPYQKAVQGKKLLREHLENSDQFSVDQIFEKLLSIAKNTTQWYPDAQLQYQTQNVEEYNRPLSAIFIKYPEGTRMYGTRCHTLITVDQKDKINILERRLLPEQSTWHDARFEFVLNGS", "soluble on expression in E. coli": "not soluble"}
{"sequence": "MSLGVKVKVINGGVLISQDLSCAGQVSTSVALPILGACGARPTVLPTAILSTHTGFKDNTYLDLSNEMSRIMSHWQKIDLEFKAIYLGYLGKEALDFWIKNIEQIIRTNQVVLIDPAMADHGKMYRGLDTDYIKKMRQLIFKATILTPNITEAAFLLNEDIPENSLEKAQVLAEKLVQRFAIPNVIITGITLSKDKIGEVGITKEGKWSIIQEKMPGDFFGTGDMFASAFLAAVLYGKNLEKSCAIAAEFVKLAIIDMDQKLESLFGPNYAAGLPWLLSELEKEGHHHHHH", "soluble on expression in E. coli": "soluble"}
{"sequence": "MSDHEEESHGASPTSPASSGASSPLAPISPRSEGNAPESPSGDVQDIYKDESFEAPASPARDSSAPASPSAASPAGSRSPSPSPVKTKSKVMIDSDEDSDAEESANKRALIDSDASDAEGKKRRVMLDSDDSDHEGTSKKEPTTKNLFGDDSDDDDEDRPKKTNDLDEFVEGRDEEESQETSKPAYDSDDDDGPVDRHGRHFEWDFDKMLAEKKAERKKKTRRGGKDGGIDIINDDDGTVSRLVERMKHAAKSDRNANIERKPAFQKIKMLPEVKAIMLRAGIVEVLIENGFMSALSEWLAPLPDKCLPALDIRITVLKLLHNPRFWKLDRSTLKQSGLGKAVMMLYKHPNETKENKGIANKLIGEWARPIYHLDTDYSTVSRQEREERDYSRMPEKRKKKINSRDEEEPNDDDQPKRPRIRDADEMGPTKSDDLKPGDKGYIPRARVPKPSTKDYVIRPEWRVTGAFKGEKKSTGNNRYDQTFRDFQERTKKSKANRIVKVSLEGRNMGI", "soluble on expression in E. coli": "soluble"}
{"sequence": "MVHHDGTLQALITAYQKTPAFTDLAEATRKGYIRHIRQIEADFGDMPVQALADPRVRGEFLDWRDRLAQKSKRSADYAFSVLARILSWAHDRRKIPVNPCEKPGRLYTLEHHHHHH", "soluble on expression in E. coli": "not soluble"}
{"sequence": "MSLMRIVFDIGGSVLVPEKPDVDFITKLGYELTKISEDHEIAIVVGGGKVAREYIEVASKFNTNETFKDYLGIQITRANAMLLIAALKERAYPQVVSDFWEAWKAIQLKKIPVMGGTHPGHTTDAVSALLAEFLSADLLVVITNVDGVYTEDPKKNPNAKKIPKMKAKDLVDIVSREAGKAGVSTVIDPLAAKIIMRSGIKTYVIGKEDALKLFDVIKGNHNGTIIEPEGHHHHHH", "soluble on expression in E. coli": "soluble"}
{"sequence": "MAHHHHHHMSTEPTPRVIVFDLDGTLWRPEMYELWGGGAPFMLSKDNSSIAIDKKGTEVRLIGQTRELLQMLSTTEEWRNTHLAISSTCDEPRWAMELLQLFRFRDKRGNDVPMLSLFGDLVEIYKANKKNQHRTILKKVKEHDPTVRGDFSDFIFFDNQQDNIGHVSSIGVTSIYCPNGMVGGVFERGLKEWRDKEKKRAL", "soluble on expression in E. coli": "soluble"}
{"sequence": "MSRSGEFCPRCGDEIPEGTDERPELAGAGGQRNSEHVLCDACYFEEFDLVDAPDTIQVRVCSRCGAVHKGNRWVDIGAEDYTDIAVEQVSEALGIHVDAQSVAWQVAPEQLDKNNIRMHAEFSGVIRGTPVTEEVTVPVRISRQTCKRCGKIAGGSFASIVQVRADGRDPTDDERERAEEIAQEYVAAREETGDRNAFITETKSVDDGLDMKISTNQMGLGIAKRITAQLGGSYSDSRRLISEDEDGQELYRMTYAVRLPRYRQGEVIDPEDGDGPVLVRSVQGNLKGVRLATGEDYEASFEAGETPDARRLGFREDGQQTTLVAIEDERAVQVLDPETFESKTVPRPDYLDIDADEVPVLKSHAGLHILPAADADTDELEHHHHHH", "soluble on expression in E. coli": "soluble"}
{"sequence": "ACAWLEAQEEEEVGFPVRPQVPLRPMTYKAAVDLSHFLKEKGGLEGLIHSQRRQDILDLWIYHTQGYFPDWQNYTPGPGVRYPLTFGWCYKLVPVEPDKVEEANKGENTSLLHPVSLHGMDDPEREVLEWRFDSRLAFHHVARELHPEYFKN", "soluble on expression in E. coli": "soluble"}
{"sequence": "MQEEVNQKVISLSIQGVKITASVLKAALRKFLEMDNRRKQKATQVKMAEKTGRAQEKGREKARKKIEKKKPHGKQTIKQLNAQGVQLSNLKITDENVKSFDRVARKYGIDYSLKKEVGADPPKYLVFFKAKDVDVMTAAFREYAGVELKKKQVKKPSVRKKLQKSVERKAKNRQRVKQRQKSRGQER", "soluble on expression in E. coli": "not soluble"}
{"sequence": "MTVIQWFPGHMAKAKREVQEKLKLIDVAFELLDARVPMSSRNPMIDEILGQKPRLILLNKADMADEAVTEQWIRYFHDQGRLALPIDAQSGTGVRQIAAAAKEMVKDKFEKMRAKGIKNPRPVRALIVGIPNVGKSTLINRLAGRHIAKTGDKPGVTKAQQWIKVGKEMELLDTPGILWPKFEDEDVGYKLAVTGAIKDEILNLQDVAVYALRFLSTHYPNRLAERYGLDDIPDDIVALFDAIGRQRGCLTSGGAVDYDKVADIVLYDIRTEKLGRLSFETPASRT", "soluble on expression in E. coli": "not soluble"}
{"sequence": "MVGLADVAVLYSGGKDSNYALYWALKSGLRVRYLVSMVSENEESYMYHTPNVELTSLQARALGIPIIKGFTKGEKEKEVEDLKNVLEGLKVDGIVAGALASRYQKERIENVARELGLKVYTPAWEKDPYQYMLEIIKLGFKVVFVAVSAYGLNESWLGRELNYKNLEELKKLSEKYGIHIAGEGGEFETFVLDMPFFKAKIVIDDAEKFWDGLSGKFIIKRAHLEWK", "soluble on expression in E. coli": "soluble"}
{"sequence": "MSLSEKTFPSHARVVIVGGGVMGVGLAYHLAHEGWGHDTVLLEKAELTSGSTWHAAGQITHSTSSYGLGKCVDYNIGLYSGGLEAETGQAVTWHGCGSFRLAYTEDEMDWLRHTLSVGRSLGFNIDLVSPQRVAELHPFYNLDGVLGALHTPDDGHVDPTNVTMALAAGARAKGVRIIRRCRASNITQLASGEWQVETDQGTITCEHVVNAGGTYARQMGEWSGLQLPMTSMTHHYFVTENVPEFEALDRELPVIRDDKKVSGYIRMEQKRGLIGIYEKANPNAVWLDECPWDYENWLFDADYDRVMPWLEESLNRMPVLAERGITREVHGAISHPPDGNPLIGPAPGVRNYWCCCGTQIGIGWGPGLTRELARWMVHGAADISMRDYDPRRFGSYATKEWQVIKAKEDYCLRHEIPFPHFNRLAGRPVKPSPLYDRLKSKGAVFEEVYGHERPRWFAKAGIAQHDHYGFGRTPVHDVVGDECRAVREAAGIMDISAFTKVELSGPEAETLLDRLVANRLPRKTGGIALTHMLNAAGRIELETTVVRLASDRFYLVCAAFFEQRLLDHLDRHRGTADVTVTLRSNDWAALTLNGPRSRDILATCTDAPLDNAAFPWLTAQEITVAGHRLWAFRMSYAGELGWEFHMPRDAALAVYDALWAAGAPLGLADYGSFAMNAMRMEKGFKGAGELTNEVTLAEADVLRFARTDKAYIGREATLAPARRFVCAYLEIAPDGAHDGHGGEAVLLQGKVVGSTASVAYGHSCGKILAFAYVRPEANVAGTEVEVVIAGTPRPARILGAPAYDPEGLLPRTDAKGIITITTDPNSSSVDKLAAALEHHHHHH", "soluble on expression in E. coli": "soluble"}
{"sequence": "MPGIDIVIVNWNSGNQLRECLRSIGNLVGEAEPLTVTVVDNASCDGSADGLPEPSCPLRVIRNRANLGFGRASNLGAREGSADYLLFLNPDTRLHPGALSIPLGFMESETGRHVGICGVQCLDETGGVARCCARFPTAWRLVGQALGLDRLFPRWIPPHFLGEWPHDSDRDVDQVIGAFFFVRRAVFEQLGGFDERFFVYYEDLDFALRARRAGWGSRYLAGARIFHRGGGVSRQISARRLHYLTHSKLRYARKHFAGIDAFLVSAAVLLLEPLARSAYALGRGRPGEFADTWKAFGGLYASLCRPGENGRLEHHHHHH", "soluble on expression in E. coli": "not soluble"}
{"sequence": "MGSDKIHHHHHHMMPMDWEITFKGITYECINCAYCCSCKGWRIYLNYFDRLKLKDYEYAIEPCEGEFKYRLKVNEKGCVLLNNNLCRIHLEKGYEFKPLMCMIFPFSCMIKWDGTPLLIIKHYCSGIKKGKISKKVVNEAIELIKELYFDMFEEIIENGMEHSSKTEIFENFRVDWEEREDFGRYIFSSKTFDEMFERCREIFGNKINKLNLEEIDEIKNNLQRYNTKENEEEILRYLLELNRREHFRKLPFYREVNKLINIGNYLTKYKNVFKGEGEVDKKLFLNLK", "soluble on expression in E. coli": "not soluble"}
